{"source": "patent US12269859B2", "about": "“Synthetic immune receptors and methods of use thereof” (Angeles Therapeutics, Inc., priority 2016, dated 2025)", "tested_on": "target antigen-expressing cell line", "assay": "Jurkat NFAT-GFP assay, coculture with target cell lines expressing the respective target antigen (summary Table 10A)", "assay_type": "cell-based, human", "parameters": "key: The signs +/−, +, 2+ etc. after the name of the cell lines indicate the relative degree of positivity on the Jurkat-NFAT-GFP assay as measured by the % GFP positive cells; +: relative degree of positivity on the Jurkat-NFAT-GFP assay as measured by the % GFP positive cells; 2+: relative degree of positivity on the Jurkat-NFAT-GFP assay as measured by the % GFP positive cells", "how_it_was_run": "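Stable SIR expression in Jurkat-NFAT-GFP cells by lentiviral transfer and puromycin selection; coculture with target cells (E:T approximately 1:2) for 4 to 18 hours; flow cytometric measurement of NFAT-driven GFP; scoring as positive when % GFP-positive cells exceeds that of parental reporter cells.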", "data": [{"molecule": "010417-Y05 (protein) MALPVTALLLPLALLLHAARPLEGKPIPNPLLGLDSTGSGEDLKNVFPPEVAVFEPSKAEIAHTQKATLVCLATGFYPDHVELSWWVNGKEVHSGVCTDPQPLKEQPALNDSRYCLSSRLRVSATFWQNPRNHFRCQVQFYGLSENDEWTQDRAKPVTQIVSAEAWGRADCGITSASYHQGVLSATILYEILLGKATLYAVLVSALVLMAMVKRKDSRGRAKRSGSGATNFSLLKQAGDVEENPGPTSMALPVTALLLPLALLLHAARPDQIVLTQSPAIMSASPGEKVTISCSASSSVSYMYWYQQKPGSSPKPWIYRTSNLASGVPARFSGSGSGTSYSLTISNMEAEDAAAYYCQQYHSYPTTFGGGTKLEVKGGGGSGGGGSGGGGSEVQLVESGGGLVQPKGSLKLSCAASGFSFNTYAMNWVRQAPGKGLEWIAHIRSKSNNFATYYADSVKDRFSISRDASENILFLQMNNLKTEDTAMYYCVRQGGDFPMDYWGQGTSVTVSSTREAAAKEIVMTQSPATLSLSPGERATLSCRASQDISKYLNWYQQKPGQAPRLLIYHTSRLHSGIPARFSGSGSGTDYTLTISSLQPEDFAVYFCQQGNTLPYTFGQGTKLEIKGGGGSGGGGSGGGGSQVQLQESGPGLVKPSETLSLTCTVSGVSLPDYGVSWIRQPPGKGLEWIGVIWGSETTYYNSSLKSRVTISKDNSKNQVSLKLSSVTAADTAVYYCAKHYYYGGSYAMDYWGQGTLVTVSSTREQKLISEEDGSGIQNPDPAVYQLRDSKSSDKSVCLFTDFDSQTNVSQSKDSDVYITDKCVLDMRSMDFKSNSAVAWSNKSDFACANAFNNSIIPEDTFFPSSDVPCDVKLVEKSFETDTNLNFQNLSVIGFRILLLKVAGFNLLMTLRLWSSRAKRSGSGVKQTLNFDLLKLAGDVESNPGPSRGHMTEYKPTVRLATRDDVPRAVRTLAAAFADYPATRHTVDPDRHIERVTELQELFLTRVGLDIGKVWVADDGAAVAVWTTPESVEAGAVFAEIGPRMAELSGSRLAAQQQMEGLLAPHRPKEPAWFLATVGVSPDHQGKGLGSAVVLPGVEAAERAGVPAFLETSAPRNLPFYERLGFTVTADVEVPEGPRTWCMTRKPGA", "values": [{"measurement": "NFAT-GFP ASSAY Positive Cell lines", "setting": "coculture with HEL cells", "result": "(+), HEL (+)"}, {"measurement": "NFAT-GFP ASSAY Positive Cell lines", "setting": "coculture with NALM6 cells", "result": "(+), HEL (+)"}, {"measurement": "NFAT-GFP ASSAY Positive Cell lines", "setting": "coculture with RAJI cells", "result": "RAJI (+), NALM6"}]}, {"molecule": "101817-E05 (protein) MALPVTALLLPLALLLHAARPQSVVTQPPSVSAAPGQKVTISCSGSSSNIGNNYVSWYQQLPGTAPKLLIYDNNKRPSGIPDRFSASKSGTSATLGITGLQTRDEADYYCGTWDSSLSAWVFGGGTKLTVLGLEIQNPDPAVYQLRDSKSSDKSVCLFTDFDSQTNVSQSKDSDVYITDKCVLDMRSMDFKSNSAVAWSNKSDFACANAFNNSIIPEDTFFPSSDVPCDVKLVEKSFETDTNLNFQNLSVIGFRILLLKVAGFNLLMTLRLWSSRAKRSGSGVKQTLNFDLLKLAGDVESNPGPTSMDWIWRILFLVGAATGAHSFEQVQLVQSGAEVKKPGSSVKVSCKASGDTFSSYYISWVRQAPGQGLEWMGRIIPILGIANYAQKYQGRVTLSADKSTSTSYMELNSLSSEDTAVYYCALDWSYSIDYWGQGTLVTVSSTREDLKNVFPPEVAVFEPSKAEIAHTQKATLVCLATGFYPDHVELSWWVNGKEVHSGVCTDPQPLKEQPALNDSRYCLSSRLRVSATFWQNPRNHFRCQVQFYGLSENDEWTQDRAKPVTQIVSAEAWGRADCGITSASYHQGVLSATILYEILLGKATLYAVLVSALVLMAMVKRKDSRGRAKRSGSGATNFSLLKQAGDVEENPGPSRGHMTEYKPTVRLATRDDVPRAVRTLAAAFADYPATRHTVDPDRHIERVTELQELFLTRVGLDIGKVWVADDGAAVAVWTTPESVEAGAVFAEIGPRMAELSGSRLAAQQQMEGLLAPHRPKEPAWFLATVGVSPDHQGKGLGSAVVLPGVEAAERAGVPAFLETSAPRNLPFYERLGFTVTADVEVPEGPRTWCMTRKPGA", "values": [{"measurement": "NFAT-GFP ASSAY Positive Cell lines", "setting": "coculture with U266 cells", "result": "U266(+/−)"}]}, {"molecule": "010417-U02 (protein) MALPVTALLLPLALLLHAARPLEGKPIPNPLLGLDSTGSGEDLKNVFPPEVAVFEPSKAEIAHTQKATLVCLATGFYPDHVELSWWVNGKEVHSGVCTDPQPLKEQPALNDSRYCLSSRLRVSATFWQNPRNHFRCQVQFYGLSENDEWTQDRAKPVTQIVSAEAWGRADCGITSASYHQGVLSATILYEILLGKATLYAVLVSALVLMAMVKRKDSRGRAKRSGSGATNFSLLKQAGDVEENPGPTSMALPVTALLLPLALLLHAARPDQIVLTQSPAIMSASPGEKVTISCSASSSVSYMYWYQQKPGSSPKPWIYRTSNLASGVPARFSGSGSGTSYSLTISNMEAEDAAAYYCQQYHSYPTTFGGGTKLEVKGGGGSGGGGSGGGGSEVQLVESGGGLVQPKGSLKLSCAASGFSFNTYAMNWVRQAPGKGLEWIAHIRSKSNNFATYYADSVKDRFSISRDASENILFLQMNNLKTEDTAMYYCVRQGGDFPMDYWGQGTSVTVSSTREAAAKEIVLTQSPATLSLSPGERATLSCSASSSVSYMHWYQQKPGQAPRLLIYDTSKLASGIPARFSGSGSGTDFTLTISSLEPEDVAVYYCFQGSVYPFTFGQGTKLEIKRGGGGSGGGGSGGGGSQVQLQESGPGLVKPSQTLSLTCTVSGGSISTSGMGVGWIRQHPGKGLEWIGHIWWDDDKRYNPALKSRVTISVDTSKNQFSLKLSSVTAADTAVYYCARMELWSYYFDYWGQGTLVTVSSTREQKLISEEDGSGIQNPDPAVYQLRDSKSSDKSVCLFTDFDSQTNVSQSKDSDVYITDKCVLDMRSMDFKSNSAVAWSNKSDFACANAFNNSIIPEDTFFPSSDVPCDVKLVEKSFETDTNLNFQNLSVIGFRILLLKVAGFNLLMTLRLWSSRAKRSGSGVKQTLNFDLLKLAGDVESNPGPSRGHMTEYKPTVRLATRDDVPRAVRTLAAAFADYPATRHTVDPDRHIERVTELQELFLTRVGLDIGKVWVADDGAAVAVWTTPESVEAGAVFAEIGPRMAELSGSRLAAQQQMEGLLAPHRPKEPAWFLATVGVSPDHQGKGLGSAVVLPGVEAAERAGVPAFLETSAPRNLPFYERLGFTVTADVEVPEGPRTWCMTRKPGA", "values": [{"measurement": "NFAT-GFP ASSAY Positive Cell lines", "setting": "coculture with HEL cells", "result": "+/−"}, {"measurement": "NFAT-GFP ASSAY Positive Cell lines", "setting": "coculture with NALM6 cells", "result": "+"}, {"measurement": "NFAT-GFP ASSAY Positive Cell lines", "setting": "coculture with RAJI cells", "result": "RAJI (+), NALM6"}]}, {"molecule": "112916-C01 (protein, Polynucleotide encoding a Synthetic Immune Receptor (SIR)) MALPVTALLLPLALLLHAARPDVVMTQTPLTLSVTIGQPASISCKSSQSLLDSDGKTYLHWLLQRPGQSPKRLIFLVSKLDSGVPDRFTGSGSGTDFTLKISRVEAEDLGVYYCWQGTHFPQTFGGGTKLEIKLEGKPIPNPLLGLDSTGSGEDLKNVFPPEVAVFEPSKAEIAHTQKATLVCLATGFYPDHVELSWWVNGKEVHSGVCTDPQPLKEQPALNDSRYCLSSRLRVSATFWQNPRNHFRCQVQFYGLSENDEWTQDRAKPVTQIVSAEAWGRADCGITSASYHQGVLSATILYEILLGKATLYAVLVSALVLMAMVKRKDSRGRAKRSGSGATNFSLLKQAGDVEENPGPTSMDWIWRILFLVGAATGAHSFEVQLQESGPDLVKPSQSLSLTCTVTGYSITSGYSWHWIRQFPGNKLEWMGYIHYSGDTDYNPSLKSRFSITRDTSKNQFFLQLNSVTTEDTATYYCATPGGFVYWGQGTLVTVSSTREQKLISEEDGSGIQNPDPAVYQLRDSKSSDKSVCLFTDFDSQTNVSQSKDSDVYITDKCVLDMRSMDFKSNSAVAWSNKSDFACANAFNNSIIPEDTFFPSSDVPCDVKLVEKSFETDTNLNFQNLSVIGFRILLLKVAGFNLLMTLRLWSSRAKRSGSGVKQTLNFDLLKLAGDVESNPGPSRGHMTEYKPTVRLATRDDVPRAVRTLAAAFADYPATRHTVDPDRHIERVTELQELFLTRVGLDIGKVWVADDGAAVAVWTTPESVEAGAVFAEIGPRMAELSGSRLAAQQQMEGLLAPHRPKEPAWFLATVGVSPDHQGKGLGSAVVLPGVEAAERAGVPAFLETSAPRNLPFYERLGFTVTADVEVPEGPRTWCMTRKPGA", "values": [{"measurement": "NFAT-GFP ASSAY Positive Cell lines", "setting": "coculture with L363 cells", "result": "(+)"}, {"measurement": "NFAT-GFP ASSAY Positive Cell lines", "setting": "coculture with U266 cells", "result": "U266 (+/−), L363"}]}, {"molecule": "022817-U05 (protein, Polynucleotide encoding a Synthetic Immune Receptor (SIR)) MALPVTALLLPLALLLHAARPDIQMNQSPSSLSASLGDTITITCHASQNINVWLSWYQQKPGNIPKLLIYKASNLHTGVPSRFSGSGSGTGFTITISSLQPEDIATYYCQQGQSYPWTFGGGTKLEIKRLEGKPIPNPLLGLDSTGSGEDLKNVFPPEVAVFEPSKAEIAHTQKATLVCLATGFYPDHVELSWWVNGKEVHSGVCTDPQPLKEQPALNDSRYCLSSRLRVSATFWQNPRNHFRCQVQFYGLSENDEWTQDRAKPVTQIVSAEAWGRADCGITSASYHQGVLSATILYEILLGKATLYAVLVSALVLMAMVKRKDSRGRAKRSGSGATNFSLLKQAGDVEENPGPTSMDWIWRILFLVGAATGAHSFEEVQLQQSGPELVKPGASVKISCKASGYSFTGYFMNWVKQSHGKSLEYIGRFNPYNGETLYNQKFKGKATLTVDKSSSTVHMELLSVTSEDSAVYYCGRSGNDDAMDYWGQGTSVTVSSATREQKLISEEDGSGIQNPDPAVYQLRDSKSSDKSVCLFTDFDSQTNVSQSKDSDVYITDKCVLDMRSMDFKSNSAVAWSNKSDFACANAFNNSIIPEDTFFPSSDVPCDVKLVEKSFETDTNLNFQNLSVIGFRILLLKVAGFNLLMTLRLWSSRAKRSGSGVKQTLNFDLLKLAGDVESNPGPSRGHMTEYKPTVRLATRDDVPRAVRTLAAAFADYPATRHTVDPDRHIERVTELQELFLTRVGLDIGKVWVADDGAAVAVWTTPESVEAGAVFAEIGPRMAELSGSRLAAQQQMEGLLAPHRPKEPAWFLATVGVSPDHQGKGLGSAVVLPGVEAAERAGVPAFLETSAPRNLPFYERLGFTVTADVEVPEGPRTWCMTRKPGA", "values": [{"measurement": "NFAT-GFP ASSAY Positive Cell lines", "setting": "coculture with Jurkats-TCRgd-SIR cells", "result": "Jurkats-TCRgd-SIR"}]}]}
